How the values were obtained:
MAGI-1 PDZ3 domain [1] = target: T1, MAGI-1 PDZ3 domain (Rattus norvegicus (Rat), UniProt Q4L1J4 846-921, limits assumed); test: ligand binding assay with purified PDZ domain
MAGI-1 PDZ1 domain [2] = target: T2, MAGI-1 PDZ1 domain (Rattus norvegicus (Rat), UniProt Q4L1J4 475-542, limits assumed); test: ligand binding assay with purified MAGI-1 PDZ1
T2 construct: also called MAGI-PDZ-1

MAGI-1 PDZ1 domain [3] = target: T2, MAGI-1 PDZ1 domain; test: ligand binding assay with purified PDZ domain
MAGI-1 PDZ3 domain [4] = target: T1, MAGI-1 PDZ3 domain; test: ligand binding assay with purified MAGI-1 PDZ3

T2 sequence (Q4L1J4 475-542 limits assumed): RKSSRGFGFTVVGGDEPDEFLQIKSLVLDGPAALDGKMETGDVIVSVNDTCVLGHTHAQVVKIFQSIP
T1 sequence (Q4L1J4 846-921 limits assumed): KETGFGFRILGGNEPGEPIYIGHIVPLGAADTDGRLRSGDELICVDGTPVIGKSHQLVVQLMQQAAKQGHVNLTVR

Binder | binding result (MAGI-1 PDZ3 domain [1]) | Kd (MAGI-1 PDZ1 domain [2]) | binding result (MAGI-1 PDZ1 domain [3]) | Kd (MAGI-1 PDZ3 domain [4])
GRKKRRQRRRPPQSRTRRETQL (also called TAT-E6) [TAT-HPV E6] | no binding | 15 nM | – | –
GRKKRRQRRRPPQAQSQAGSLV (also called TAT-PDZ3 peptide) [TAT-ESAM] | – | – | no binding | 17 nM
GRKKRRQRRRPPQYKTDGITVV (also called TAT-PDZ3 peptide) [TAT-CAR^Ex8] | – | 23 nM | – | 4 nM
GRKKRRQRRRPPQGGKKKETLV (also called TAT-PDZ1 peptide) [TAT-NET1] | no binding | 28 nM | – | –

— patent US20180311369A1 (WRIGHT STATE UNIVERSITY, published 2018)
